Common to all, as to experiment: BLI
In general terms: In BLI a coated tip is dipped into the sample, and binding shifts an interference pattern.

Assay [1] concerns the target T1, Aβ42 oligomers (soluble) (UniProt P05067 672-713).
Assay [2] concerns the target T1, Aβ42 oligomers (soluble). The source holds these as a separate data set.
The next assay has as its target Aβ42 monomers (UniProt P05067 672-713).
In another assay the target is Aβ40 monomers (UniProt P05067 672-711).

This note sets out measurements from article PMC6220267 (2018).

B1: soluble mouse Trem2‐Fc (soluble ectodomain) (Fc fusion)
chain: LNTTVLQGMAGQSLRVSCTYDALKHWGRRKAWCRQLGEEGPCQRVVSTHGVWLLAFLKKRNGSTVIADDTLAGTVTITLKNLQAGDAGLYQCQSLRGREAEVLQKVLVEVLEDPLDDQDAGDLWVPEESSSFEGAQVEHSTSRNQETSFPPTS
In general, Kd refers to the concentration at which binding is half-saturated. The low end stands for tighter binding, the high end for weaker binding. What is called koff is the rate constant with which the complex falls apart. With B1, the Kd with Aβ42 oligomers (soluble) [1] worked out at 1 pM. The koff in the assay with Aβ42 oligomers (soluble) [2] is 1e-07 s⁻¹.

B2: soluble TREML1‐Fc (human, soluble ectodomain) (Fc fusion)
chain: QGIVGSLPEVLQAPVGSSILVQCHYRLQDVKAQKVWCRFLPEGCQPLVSSAVDRRAPAGRRTFLTDLGGGLLQVEMVTLQEEDAGEYGCMVDGARGPQILHRVSLNILPPEEEEETHKIGSLAENAFSDPAGSANPLEPSQDEKSIP
B2: the affinity with Aβ42 oligomers (soluble) [1], expressed as Kd, was 1 pM. For the same molecule, the koff with Aβ42 oligomers (soluble) [2] is 1e-07 s⁻¹.

B3: soluble mouse Treml1‐Fc (soluble ectodomain) (Fc fusion)
chain: DSHPEVLQAPVGSSILVQCHYRLQDVRALKVWCQFLQEGCHPLVTSAVDRRAPGNGRIFLTDLGGGLLQVEMVTLQEEDTGEYGCVVEGAAGPQTLHRVSLLVLPPVPGPREGEEAEDEKETYRIGTGSLLEDPSLDPSASAGPHEFRRRENSIP
For B3, the affinity with Aβ42 oligomers (soluble) [1], expressed as Kd, was 1 pM. The koff with Aβ42 oligomers (soluble) [2] came out at 1e-07 s⁻¹.

B4: soluble TREM2‐Fc (soluble ectodomain of human TREM2 fused to the Fc domain of human IgG4, V5 epitope) (Fc fusion)
chain: HNTTVFQGVAGQSLQVSCPYDSMKHWGRRKAWCRQLGEKGPCQRVVSTHNLWLLSFLRRWNGSTAITDDTLGGTLTITLRNLQPHDAGLYQCQSLHGSEADTLRKVLVEVLADPLDHRDAGDLWFPGESESFEDAHVEHSISRSLLEGEIPFPPTS
As for B4, the Kd is 290000 pM with Aβ42 monomers and 140000 pM with Aβ40 monomers.
